# Laboratory results taken from patent US20140087995A1 (published 2014).
# Numbered stars: 1 amine (or outer) side, 2 acyl side, 3 side chain; on linkers, the order of the positions; unused ones are H or OH. Bridge positions count the residues as written; N and C are the ends. Side chains are listed from the residue outwards. Ends that are not written are not given here. * marks the point of attachment. C20 diacid = O=C(O)CCCCCCCCCCCCCCCCCCC(=O)*; γGlu = O=C(O)[C@H](CCC(=O)[*:2])N[*:1]; AEEA = NCCOCCOCC(=O)O
# T1: human amylin receptor (human, UniProt P30988 25-474; O60896 24-148, limits assumed)
# T1 construct: whole, on cells; Calcitonin receptor plus RAMP-3 gives the amylin 3(a) receptor; membranes of Amylin 3(a)/CRE-luc cells were used; also called hAmylin-R; hAmylinR
# T1 sequence (looked up) 1: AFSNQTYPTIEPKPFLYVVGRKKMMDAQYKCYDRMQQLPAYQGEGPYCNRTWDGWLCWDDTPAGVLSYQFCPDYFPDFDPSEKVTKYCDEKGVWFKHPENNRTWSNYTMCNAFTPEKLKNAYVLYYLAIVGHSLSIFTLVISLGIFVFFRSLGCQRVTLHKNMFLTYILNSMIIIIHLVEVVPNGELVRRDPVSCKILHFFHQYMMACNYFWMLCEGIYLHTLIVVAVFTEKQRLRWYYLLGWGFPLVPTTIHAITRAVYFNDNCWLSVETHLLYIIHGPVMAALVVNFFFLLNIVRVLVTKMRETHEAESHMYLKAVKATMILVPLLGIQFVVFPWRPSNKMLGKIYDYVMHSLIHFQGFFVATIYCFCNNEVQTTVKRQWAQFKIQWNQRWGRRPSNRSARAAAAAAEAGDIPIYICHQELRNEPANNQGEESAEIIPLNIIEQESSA
# T1 sequence (looked up) 2: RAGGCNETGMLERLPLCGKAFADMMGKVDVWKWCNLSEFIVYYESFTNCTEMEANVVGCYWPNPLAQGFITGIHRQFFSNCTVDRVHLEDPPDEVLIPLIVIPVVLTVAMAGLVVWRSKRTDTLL
# B1: N^ε1-[2-[2-[2-[[(4S)-4-carboxy-4-(19-carboxynonadecanoylamino)butanoyl]amino]ethoxy]ethoxy]acetyl]-[His14,Arg17,Pro21,Pro27,Arg34]-h-amylin (peptide)
# peptide: K([AEEA-γGlu-C20 diacid])CNTATCATQRLAHFLRHSSPNFGAIPSSTNVGRNTY-NH2
# modifications: disulfide 2-7; N-terminus assumed
# SMILES: CC[C@H](C)[C@H](NC(=O)[C@H](C)NC(=O)CNC(=O)[C@H](Cc1ccccc1)NC(=O)[C@H](CC(N)=O)NC(=O)[C@@H]1CCCN1C(=O)[C@H](CO)NC(=O)[C@H](CO)NC(=O)[C@H](Cc1c[nH]cn1)NC(=O)[C@H](CCCNC(=N)N)NC(=O)[C@H](CC(C)C)NC(=O)[C@H](Cc1ccccc1)NC(=O)[C@H](Cc1c[nH]cn1)NC(=O)[C@H](C)NC(=O)[C@H](CC(C)C)NC(=O)[C@H](CCCNC(=N)N)NC(=O)[C@H](CCC(N)=O)NC(=O)[C@@H](NC(=O)[C@H](C)NC(=O)[C@@H]1CSSC[C@H](NC(=O)[C@@H](N)CCCCNC(=O)COCCOCCNC(=O)CC[C@H](NC(=O)CCCCCCCCCCCCCCCCCCC(=O)O)C(=O)O)C(=O)N[C@@H](CC(N)=O)C(=O)N[C@@H]([C@@H](C)O)C(=O)N[C@@H](C)C(=O)N[C@@H]([C@@H](C)O)C(=O)N1)[C@@H](C)O)C(=O)N1CCC[C@H]1C(=O)N[C@@H](CO)C(=O)N[C@@H](CO)C(=O)N[C@H](C(=O)N[C@@H](CC(N)=O)C(=O)N[C@H](C(=O)NCC(=O)N[C@@H](CCCNC(=N)N)C(=O)N[C@@H](CC(N)=O)C(=O)N[C@H](C(=O)N[C@@H](Cc1ccc(O)cc1)C(N)=O)[C@@H](C)O)C(C)C)[C@@H](C)O
# notes: also called 14H, 17R, 21P, 27P, 34R
# B2: N^ε1-[2-[2-[2-[[(4S)-4-carboxy-4-(19-carboxynonadecanoylamino)butanoyl]amino]ethoxy]ethoxy]acetyl]-[His14,Arg17,Pro21,Pro27,Pro34]-h-amylin (peptide)
# peptide: K([AEEA-γGlu-C20 diacid])CNTATCATQRLAHFLRHSSPNFGAIPSSTNVGPNTY-NH2
# modifications: disulfide 2-7; N-terminus assumed
# SMILES: CC[C@H](C)[C@H](NC(=O)[C@H](C)NC(=O)CNC(=O)[C@H](Cc1ccccc1)NC(=O)[C@H](CC(N)=O)NC(=O)[C@@H]1CCCN1C(=O)[C@H](CO)NC(=O)[C@H](CO)NC(=O)[C@H](Cc1c[nH]cn1)NC(=O)[C@H](CCCNC(=N)N)NC(=O)[C@H](CC(C)C)NC(=O)[C@H](Cc1ccccc1)NC(=O)[C@H](Cc1c[nH]cn1)NC(=O)[C@H](C)NC(=O)[C@H](CC(C)C)NC(=O)[C@H](CCCNC(=N)N)NC(=O)[C@H](CCC(N)=O)NC(=O)[C@@H](NC(=O)[C@H](C)NC(=O)[C@@H]1CSSC[C@H](NC(=O)[C@@H](N)CCCCNC(=O)COCCOCCNC(=O)CC[C@H](NC(=O)CCCCCCCCCCCCCCCCCCC(=O)O)C(=O)O)C(=O)N[C@@H](CC(N)=O)C(=O)N[C@@H]([C@@H](C)O)C(=O)N[C@@H](C)C(=O)N[C@@H]([C@@H](C)O)C(=O)N1)[C@@H](C)O)C(=O)N1CCC[C@H]1C(=O)N[C@@H](CO)C(=O)N[C@@H](CO)C(=O)N[C@H](C(=O)N[C@@H](CC(N)=O)C(=O)N[C@H](C(=O)NCC(=O)N1CCC[C@H]1C(=O)N[C@@H](CC(N)=O)C(=O)N[C@H](C(=O)N[C@@H](Cc1ccc(O)cc1)C(N)=O)[C@@H](C)O)C(C)C)[C@@H](C)O
# notes: also called 14H, 17R, 21P, 27P, 34P
# B3: N^ε1-[2-[2-[2-[[(4S)-4-carboxy-4-(19-carboxynonadecanoylamino)butanoyl]amino]ethoxy]ethoxy]acetyl]-[His14,Arg17,Pro21,Pro27]-h-amylin (peptide)
# peptide: K([AEEA-γGlu-C20 diacid])CNTATCATQRLAHFLRHSSPNFGAIPSSTNVGSNTY-NH2
# modifications: disulfide 2-7; N-terminus assumed
# SMILES: CC[C@H](C)[C@H](NC(=O)[C@H](C)NC(=O)CNC(=O)[C@H](Cc1ccccc1)NC(=O)[C@H](CC(N)=O)NC(=O)[C@@H]1CCCN1C(=O)[C@H](CO)NC(=O)[C@H](CO)NC(=O)[C@H](Cc1c[nH]cn1)NC(=O)[C@H](CCCNC(=N)N)NC(=O)[C@H](CC(C)C)NC(=O)[C@H](Cc1ccccc1)NC(=O)[C@H](Cc1c[nH]cn1)NC(=O)[C@H](C)NC(=O)[C@H](CC(C)C)NC(=O)[C@H](CCCNC(=N)N)NC(=O)[C@H](CCC(N)=O)NC(=O)[C@@H](NC(=O)[C@H](C)NC(=O)[C@@H]1CSSC[C@H](NC(=O)[C@@H](N)CCCCNC(=O)COCCOCCNC(=O)CC[C@H](NC(=O)CCCCCCCCCCCCCCCCCCC(=O)O)C(=O)O)C(=O)N[C@@H](CC(N)=O)C(=O)N[C@@H]([C@@H](C)O)C(=O)N[C@@H](C)C(=O)N[C@@H]([C@@H](C)O)C(=O)N1)[C@@H](C)O)C(=O)N1CCC[C@H]1C(=O)N[C@@H](CO)C(=O)N[C@@H](CO)C(=O)N[C@H](C(=O)N[C@@H](CC(N)=O)C(=O)N[C@H](C(=O)NCC(=O)N[C@@H](CO)C(=O)N[C@@H](CC(N)=O)C(=O)N[C@H](C(=O)N[C@@H](Cc1ccc(O)cc1)C(N)=O)[C@@H](C)O)C(C)C)[C@@H](C)O
# notes: also called 14H, 17R, 21P, 27P
# B4: N^ε1-[2-[2-[2-[[(4S)-4-carboxy-4-(19-carboxynonadecanoylamino)butanoyl]amino]ethoxy]ethoxy]acetyl]-[His14,Arg17,Pro21,Pro27,Pro31]-h-amylin (peptide)
# peptide: K([AEEA-γGlu-C20 diacid])CNTATCATQRLAHFLRHSSPNFGAIPSSTPVGSNTY-NH2
# modifications: disulfide 2-7; N-terminus assumed
# SMILES: CC[C@H](C)[C@H](NC(=O)[C@H](C)NC(=O)CNC(=O)[C@H](Cc1ccccc1)NC(=O)[C@H](CC(N)=O)NC(=O)[C@@H]1CCCN1C(=O)[C@H](CO)NC(=O)[C@H](CO)NC(=O)[C@H](Cc1c[nH]cn1)NC(=O)[C@H](CCCNC(=N)N)NC(=O)[C@H](CC(C)C)NC(=O)[C@H](Cc1ccccc1)NC(=O)[C@H](Cc1c[nH]cn1)NC(=O)[C@H](C)NC(=O)[C@H](CC(C)C)NC(=O)[C@H](CCCNC(=N)N)NC(=O)[C@H](CCC(N)=O)NC(=O)[C@@H](NC(=O)[C@H](C)NC(=O)[C@@H]1CSSC[C@H](NC(=O)[C@@H](N)CCCCNC(=O)COCCOCCNC(=O)CC[C@H](NC(=O)CCCCCCCCCCCCCCCCCCC(=O)O)C(=O)O)C(=O)N[C@@H](CC(N)=O)C(=O)N[C@@H]([C@@H](C)O)C(=O)N[C@@H](C)C(=O)N[C@@H]([C@@H](C)O)C(=O)N1)[C@@H](C)O)C(=O)N1CCC[C@H]1C(=O)N[C@@H](CO)C(=O)N[C@@H](CO)C(=O)N[C@H](C(=O)N1CCC[C@H]1C(=O)N[C@H](C(=O)NCC(=O)N[C@@H](CO)C(=O)N[C@@H](CC(N)=O)C(=O)N[C@H](C(=O)N[C@@H](Cc1ccc(O)cc1)C(N)=O)[C@@H](C)O)C(C)C)[C@@H](C)O
# notes: also called 14H, 17R, 21P, 27P, 31P
# B5: N^ε1-[2-[2-[2-[[(4S)-4-carboxy-4-(19-carboxynonadecanoylamino)butanoyl]amino]ethoxy]ethoxy]acetyl]-[His14,Arg17,Pro21,Pro27,His34]-h-amylin (peptide)
# peptide: K([AEEA-γGlu-C20 diacid])CNTATCATQRLAHFLRHSSPNFGAIPSSTNVGHNTY-NH2
# modifications: disulfide 2-7; N-terminus assumed
# SMILES: CC[C@H](C)[C@H](NC(=O)[C@H](C)NC(=O)CNC(=O)[C@H](Cc1ccccc1)NC(=O)[C@H](CC(N)=O)NC(=O)[C@@H]1CCCN1C(=O)[C@H](CO)NC(=O)[C@H](CO)NC(=O)[C@H](Cc1c[nH]cn1)NC(=O)[C@H](CCCNC(=N)N)NC(=O)[C@H](CC(C)C)NC(=O)[C@H](Cc1ccccc1)NC(=O)[C@H](Cc1c[nH]cn1)NC(=O)[C@H](C)NC(=O)[C@H](CC(C)C)NC(=O)[C@H](CCCNC(=N)N)NC(=O)[C@H](CCC(N)=O)NC(=O)[C@@H](NC(=O)[C@H](C)NC(=O)[C@@H]1CSSC[C@H](NC(=O)[C@@H](N)CCCCNC(=O)COCCOCCNC(=O)CC[C@H](NC(=O)CCCCCCCCCCCCCCCCCCC(=O)O)C(=O)O)C(=O)N[C@@H](CC(N)=O)C(=O)N[C@@H]([C@@H](C)O)C(=O)N[C@@H](C)C(=O)N[C@@H]([C@@H](C)O)C(=O)N1)[C@@H](C)O)C(=O)N1CCC[C@H]1C(=O)N[C@@H](CO)C(=O)N[C@@H](CO)C(=O)N[C@H](C(=O)N[C@@H](CC(N)=O)C(=O)N[C@H](C(=O)NCC(=O)N[C@@H](Cc1c[nH]cn1)C(=O)N[C@@H](CC(N)=O)C(=O)N[C@H](C(=O)N[C@@H](Cc1ccc(O)cc1)C(N)=O)[C@@H](C)O)C(C)C)[C@@H](C)O
# notes: also called 14H, 17R, 21P, 27P, 34H
# Target: T1, human amylin receptor
# Experiment: SPA competition binding, displacement of 125I-rat amylin from membranes with human amylin 3(a) receptor (Assay V)
# Outline: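 SPA beads with BHK Amylin 3(a)/CRE-luc cell membranes (35 ng/μL final) in 50 mM Hepes pH 7.4, 1 mM CaCl2, 5 mM MgCl₂, 0.1% OA, 0.02% Tween20.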
row,Binder,IC50 [nM]
1,B1,0.743
2,B2,0.088
3,B3,0.133
4,B4,0.122
5,B5,0.29
